EP4643867A1 (Eberhard Karls Universität Tübingen (Medizinische Fakultät), dated 2025)
Values joined by “and” are separate entries in the source; they are usually repeats but may differ in a detail not shown here. Equal entries are not always repeated.

Tests used:
[1] = target: T1, Recombinant Human VEGF165 (R&D Systems, 293-VE-010/CF) (human, UniProt P15692 27-191); assay: SPR (Biacore X100), rhVEGF165 amine-coupled to CM5 chip, design as analyte, multi-cycle kinetics, 1:1 binding assumed
T1 construct: mature; Amine-coupled to a CM5 chip for SPR, and added to the medium in the HUVEC survival assay; also called rhVEGF

[2] = target: VEGF (autocrine, of U937 acute myeloid leukemia cells) (UniProt P15692-4 27-191, limits assumed); assay: cell-based or functional assay
VEGF (autocrine, of U937 acute myeloid leukemia cells), sequence (P15692 other isoform, or with tags, fused parts or gaps limits assumed): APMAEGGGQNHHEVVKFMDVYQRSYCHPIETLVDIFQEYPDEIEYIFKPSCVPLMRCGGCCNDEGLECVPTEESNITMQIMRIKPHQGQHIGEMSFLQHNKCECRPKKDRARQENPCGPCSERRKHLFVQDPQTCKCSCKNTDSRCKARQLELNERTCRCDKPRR

T1 sequence (P15692 other isoform, or with tags, fused parts or gaps): as the sequence (P15692 other isoform, or with tags, fused parts or gaps limits assumed) above

Binder	Kd [1] [nM]	IC50, proliferation of U937 cells [2]
Sam0.7 (designed binder, Designed on the ketosteroid isomerase scaffold (PDB 1OH0); Made in E. coli; The monomeric gel filtration fraction was used; not shown: N-terminal poly-histidine tag and thrombin cleavage site from pET28a(+)) LPTAEEVQKLMARYIELMDVGDIEAIVQMYADDATVEAPFGAPPIHGRERIAYFYRRMLGGGIARATLTGPVRASHNGTGAMPFRVEYVFNGQPFAMDVRVEMRFDEHGRIQTMQAYWDWVNLSVREP	190	8 µg/ml and 533 nM
Sima3.2 (designed binder, not shown: N-terminal poly-histidine tag and thrombin cleavage site from pET28a(+)) STNISPKQGLDKAKYFSGKWYLTHVLIKDPKIVSQFCASFTPRESDGTVKIAVYLYLAIKKTSDYAIGEGKLESSGLQYTATSKVVDKKKAVLKELDERHSYTVTVLEADDSSALTHITVREGSKDYGDYYLVLTHQKDAEPSAKVKSAVTQAGLQLSQFVGTKDLGCQYDDQFTSL	14	3.6 µg/ml and 180 nM
